{"source": "the Immune Epitope Database (IEDB)", "key": {"HLA-B*53:01": {"target": "HLA-B*53:01", "assay": "IEDB peptide-MHC binding, purified MHC/competitive/radioactivity; filed as Kd, often an IC50 or EC50 that approximates it; ≥ and ≤ were set here for values at or beyond the usual limits of such assays", "settings": "source organism: Dengue virus 3 Sri Lanka/1266/2000"}, "HLA-B*58:01 [1]": {"target": "HLA-B*58:01", "assay": "IEDB peptide-MHC binding, purified MHC/competitive/radioactivity; filed as Kd, often an IC50 or EC50 that approximates it; ≥ and ≤ were set here for values at or beyond the usual limits of such assays"}, "HLA-B*57:01 [2]": {"target": "HLA-B*57:01", "assay": "IEDB peptide-MHC binding, purified MHC/competitive/radioactivity; filed as Kd, often an IC50 or EC50 that approximates it; ≥ and ≤ were set here for values at or beyond the usual limits of such assays"}, "HLA-B*39:01 [3]": {"target": "HLA-B*39:01", "assay": "IEDB peptide-MHC binding, purified MHC/direct/fluorescence; filed as Kd, often an IC50 or EC50 that approximates it; ≥ and ≤ were set here for values at or beyond the usual limits of such assays", "settings": "source organism: Influenza A virus (A/Moscow/10/1999(H3N2))"}, "HLA-B*58:01 [4]": {"target": "HLA-B*58:01", "assay": "IEDB peptide-MHC binding, purified MHC/direct/fluorescence; filed as Kd, often an IC50 or EC50 that approximates it; ≥ and ≤ were set here for values at or beyond the usual limits of such assays"}, "HLA-B*15:17 [5]": {"target": "HLA-B*15:17", "assay": "IEDB peptide-MHC binding, purified MHC/direct/fluorescence; filed as Kd, often an IC50 or EC50 that approximates it; ≥ and ≤ were set here for values at or beyond the usual limits of such assays"}, "HLA-B*57:01 [6]": {"target": "HLA-B*57:01", "assay": "IEDB peptide-MHC binding, purified MHC/direct/fluorescence; filed as Kd, often an IC50 or EC50 that approximates it; ≥ and ≤ were set here for values at or beyond the usual limits of such assays"}, "HLA-A*02:12": {"target": "HLA-A*02:12", "assay": "IEDB peptide-MHC binding, purified MHC/direct/fluorescence; filed as Kd, often an IC50 or EC50 that approximates it; ≥ and ≤ were set here for values at or beyond the usual limits of such assays", "settings": "source organism: Limestone Canyon virus"}, "HLA-A*02:16": {"target": "HLA-A*02:16", "assay": "IEDB peptide-MHC binding, purified MHC/direct/fluorescence; filed as Kd, often an IC50 or EC50 that approximates it; ≥ and ≤ were set here for values at or beyond the usual limits of such assays", "settings": "source organism: Limestone Canyon virus"}, "HLA-A*02:03": {"target": "HLA-A*02:03", "assay": "IEDB peptide-MHC binding, purified MHC/direct/fluorescence; filed as Kd, often an IC50 or EC50 that approximates it; ≥ and ≤ were set here for values at or beyond the usual limits of such assays", "settings": "source organism: Limestone Canyon virus"}, "HLA-A*02:11": {"target": "HLA-A*02:11", "assay": "IEDB peptide-MHC binding, purified MHC/direct/fluorescence; filed as Kd, often an IC50 or EC50 that approximates it; ≥ and ≤ were set here for values at or beyond the usual limits of such assays", "settings": "source organism: Limestone Canyon virus"}, "HLA-A*24:03": {"target": "HLA-A*24:03", "assay": "IEDB peptide-MHC binding, purified MHC/direct/fluorescence; filed as Kd, often an IC50 or EC50 that approximates it; ≥ and ≤ were set here for values at or beyond the usual limits of such assays", "settings": "source organism: Limestone Canyon virus"}, "HLA-A*02:19": {"target": "HLA-A*02:19", "assay": "IEDB peptide-MHC binding, purified MHC/direct/fluorescence; filed as Kd, often an IC50 or EC50 that approximates it; ≥ and ≤ were set here for values at or beyond the usual limits of such assays", "settings": "source organism: Limestone Canyon virus"}, "HLA-A*68:02": {"target": "HLA-A*68:02", "assay": "IEDB peptide-MHC binding, purified MHC/direct/fluorescence; filed as Kd, often an IC50 or EC50 that approximates it; ≥ and ≤ were set here for values at or beyond the usual limits of such assays", "settings": "source organism: Limestone Canyon virus"}, "HLA-A*26:01": {"target": "HLA-A*26:01", "assay": "IEDB peptide-MHC binding, purified MHC/competitive/fluorescence; filed as Kd, often an IC50 or EC50 that approximates it; ≥ and ≤ were set here for values at or beyond the usual limits of such assays", "settings": "source organism: Four Corners hantavirus"}, "HLA-B*51:01": {"target": "HLA-B*51:01", "assay": "IEDB peptide-MHC binding, purified MHC/competitive/fluorescence; filed as Kd, often an IC50 or EC50 that approximates it; ≥ and ≤ were set here for values at or beyond the usual limits of such assays", "settings": "source organism: Four Corners hantavirus"}, "HLA-B*39:01 [7]": {"target": "HLA-B*39:01", "assay": "IEDB peptide-MHC binding, purified MHC/competitive/fluorescence; filed as Kd, often an IC50 or EC50 that approximates it; ≥ and ≤ were set here for values at or beyond the usual limits of such assays", "settings": "source organism: Four Corners hantavirus"}, "HLA-A*02:01": {"target": "HLA-A*02:01", "assay": "IEDB peptide-MHC binding, purified MHC/competitive/fluorescence; filed as Kd, often an IC50 or EC50 that approximates it; ≥ and ≤ were set here for values at or beyond the usual limits of such assays", "settings": "source organism: Four Corners hantavirus"}, "HLA-B*46:01": {"target": "HLA-B*46:01", "assay": "IEDB peptide-MHC binding, purified MHC/competitive/fluorescence; filed as Kd, often an IC50 or EC50 that approximates it; ≥ and ≤ were set here for values at or beyond the usual limits of such assays", "settings": "source organism: Four Corners hantavirus"}, "HLA-A*69:01": {"target": "HLA-A*69:01", "assay": "IEDB peptide-MHC binding, purified MHC/competitive/fluorescence; filed as Kd, often an IC50 or EC50 that approximates it; ≥ and ≤ were set here for values at or beyond the usual limits of such assays", "settings": "source organism: Four Corners hantavirus"}, "HLA-B*27:03": {"target": "HLA-B*27:03", "assay": "IEDB peptide-MHC binding, purified MHC/competitive/fluorescence; filed as Kd, often an IC50 or EC50 that approximates it; ≥ and ≤ were set here for values at or beyond the usual limits of such assays", "settings": "source organism: Four Corners hantavirus"}, "HLA-A*03:01": {"target": "HLA-A*03:01", "assay": "IEDB peptide-MHC binding, purified MHC/competitive/fluorescence; filed as Kd, often an IC50 or EC50 that approximates it; ≥ and ≤ were set here for values at or beyond the usual limits of such assays", "settings": "source organism: Four Corners hantavirus"}, "HLA-B*15:17 [8]": {"target": "HLA-B*15:17", "assay": "IEDB peptide-MHC binding, purified MHC/competitive/fluorescence; filed as Kd, often an IC50 or EC50 that approximates it; ≥ and ≤ were set here for values at or beyond the usual limits of such assays", "settings": "source organism: Four Corners hantavirus"}, "HLA-B*57:01 [9]": {"target": "HLA-B*57:01", "assay": "IEDB peptide-MHC binding, purified MHC/competitive/fluorescence; filed as Kd, often an IC50 or EC50 that approximates it; ≥ and ≤ were set here for values at or beyond the usual limits of such assays", "settings": "source organism: Four Corners hantavirus"}, "[10]": {"settings": "source organism: Dengue virus 3 Sri Lanka/1266/2000"}, "[11]": {"settings": "source organism: Dengue virus 4 Philippines/H241/1956"}, "[12]": {"settings": "source organism: Dengue virus 3 Martinique/1243/1999"}, "[13]": {"settings": "source organism: Escherichia coli O157:H7"}, "[14]": {"settings": "source organism: Dengue virus 1 Brazil/97-11/1997"}}, "data": [{"sequence": "AAVEDEEFW", "values": [{"measurement": "Kd", "setting": "HLA-B*53:01", "value": 0.0107, "unit": "µM"}, {"measurement": "Kd", "setting": "HLA-B*58:01 [1]; [10]", "value": 0.00441, "unit": "µM"}, {"measurement": "Kd", "setting": "HLA-B*57:01 [2]; [10]", "value": 1.1, "unit": "µM"}]}, {"sequence": "AVFQEEQGW", "values": [{"measurement": "Kd", "setting": "HLA-B*57:01 [2]; [11]", "value": 0.034, "unit": "µM"}]}, {"sequence": "FRGRGVFEL", "values": [{"measurement": "Kd", "setting": "HLA-B*39:01 [3]", "value": 0.0621, "unit": "µM"}]}, {"sequence": "IARISALGF", "values": [{"measurement": "Kd", "setting": "HLA-B*58:01 [4]; source organism: Brucella suis", "value": 14, "unit": "µM"}, {"measurement": "Kd", "setting": "HLA-B*15:17 [5]; source organism: Brucella suis", "value": 0.0036, "unit": "µM"}, {"measurement": "Kd", "setting": "HLA-B*57:01 [6]; source organism: Brucella suis 1330", "value": 0.088, "unit": "µM"}]}, {"sequence": "IASSGMLWMA", "values": [{"measurement": "Kd", "setting": "HLA-B*58:01 [1]; [12]", "value": 1.02, "unit": "µM"}, {"measurement": "Kd", "setting": "HLA-B*57:01 [2]; [12]", "value": 10.4, "unit": "µM"}]}, {"sequence": "ILIGFLVLW", "values": [{"measurement": "Kd", "setting": "HLA-B*58:01 [1]; [11]", "value": 0.403, "unit": "µM"}, {"measurement": "Kd", "setting": "HLA-B*57:01 [2]; [11]", "value": 1.25, "unit": "µM"}]}, {"sequence": "KLKKKSAFY", "values": [{"measurement": "Kd", "setting": "HLA-A*02:12", "value": "≥ 20", "unit": "µM"}, {"measurement": "Kd", "setting": "HLA-A*02:16", "value": "≥ 20", "unit": "µM"}, {"measurement": "Kd", "setting": "HLA-A*02:03", "value": "≥ 20", "unit": "µM"}, {"measurement": "Kd", "setting": "HLA-A*02:11", "value": "≥ 20", "unit": "µM"}, {"measurement": "Kd", "setting": "HLA-A*24:03", "value": "≥ 20", "unit": "µM"}, {"measurement": "Kd", "setting": "HLA-A*02:19", "value": "≥ 20", "unit": "µM"}, {"measurement": "Kd", "setting": "HLA-A*68:02", "value": "≥ 20", "unit": "µM"}, {"measurement": "Kd", "setting": "HLA-A*26:01", "value": "≥ 20", "unit": "µM"}, {"measurement": "Kd", "setting": "HLA-B*51:01", "value": "≥ 20", "unit": "µM"}, {"measurement": "Kd", "setting": "HLA-B*39:01 [7]", "value": "≥ 20", "unit": "µM"}, {"measurement": "Kd", "setting": "HLA-A*02:01", "value": "≥ 20", "unit": "µM"}, {"measurement": "Kd", "setting": "HLA-B*46:01", "value": "≥ 20", "unit": "µM"}, {"measurement": "Kd", "setting": "HLA-A*69:01", "value": "≥ 20", "unit": "µM"}, {"measurement": "Kd", "setting": "HLA-B*27:03", "value": "≥ 20", "unit": "µM"}, {"measurement": "Kd", "setting": "HLA-A*03:01", "value": 0.0451, "unit": "µM"}, {"measurement": "Kd", "setting": "HLA-B*15:17 [8]", "value": "≥ 20", "unit": "µM"}, {"measurement": "Kd", "setting": "HLA-B*57:01 [9]", "value": "≥ 20", "unit": "µM"}]}, {"sequence": "KSWPAAIDW", "values": [{"measurement": "Kd", "setting": "HLA-B*58:01 [4]; [13]", "value": 0.0015, "unit": "µM"}, {"measurement": "Kd", "setting": "HLA-B*15:17 [5]; [13]", "value": 0.0013, "unit": "µM"}, {"measurement": "Kd", "setting": "HLA-B*57:01 [6]; [13]", "value": 0.032, "unit": "µM"}]}, {"sequence": "LSSRAKLALD", "values": [{"measurement": "Kd", "setting": "HLA-B*58:01 [1]; [11]", "value": 0.362, "unit": "µM"}, {"measurement": "Kd", "setting": "HLA-B*57:01 [2]; [11]", "value": 7.42, "unit": "µM"}]}, {"sequence": "LTSREVLLLT", "values": [{"measurement": "Kd", "setting": "HLA-B*58:01 [1]; [14]", "value": 0.409, "unit": "µM"}, {"measurement": "Kd", "setting": "HLA-B*57:01 [2]; [14]", "value": 0.712, "unit": "µM"}]}, {"sequence": "PASAWTLYAV", "values": [{"measurement": "Kd", "setting": "HLA-B*57:01 [2]; source organism: Dengue virus 2 Jamaica/1409/1983", "value": 1.11, "unit": "µM"}]}, {"sequence": "PTSYLDVDLH", "values": [{"measurement": "Kd", "setting": "HLA-B*57:01 [2]; [12]", "value": "≥ 37.4", "unit": "µM"}]}]}
